From IntAct's records for PubMed 21362419

B1: Tyrosine-protein kinase JAK2 (Mus musculus), Q62120 (parent)
chain: MGMACLTMTEMEATSTSPVHQNGDIPGSANSVKQIEPVLQVYLYHSLGQAEGEYLKFPSGEYVAEEICVAASKACGITPVYHNMFALMSETERIWYPPNHVFHIDESTRHDILYRIRFYFPHWYCSGSSRTYRYGVSRGAEAPLLDDFVMSYLFAQWRHDFVHGWIKVPVTHETQEECLGMAVLDMMRIAKEKDQTPLAVYNSVSYKTFLPKCVRAKIQDYHILTRKRIRYRFRRFIQQFSQCKATARNLKLKYLINLETLQSAFYTEQFEVKESARGPSGEEIFATIIITGNGGIQWSRGKHKESETLTEQDVQLYCDFPDIIDVSIKQANQECSNESRIVTVHKQDGKVLEIELSSLKEALSFVSLIDGYYRLTADAHHYLCKEVAPPAVLENIHSNCHGPISMDFAISKLKKAGNQTGLYVLRCSPKDFNKYFLTFAVERENVIEYKHCLITKNENGEYNLSGTKRNFSNLKDLLNCYQMETVRSDSIIFQFTKCCPPKPKDKSNLLVFRTNGISDVQISPTLQRHNNVNQMVFHKIRNEDLIFNESLGQGTFTKIFKGVRREVGDYGQLHKTEVLLKVLDKAHRNYSESFFEAASMMSQLSHKHLVLNYGVCVCGEENILVQEFVKFGSLDTYLKKNKNSINILWKLGVAKQLAWAMHFLEEKSLIHGNVCAKNILLIREEDRRTGNPPFIKLSDPGISITVLPKDILQERIPWVPPECIENPKNLNLATDKWSFGTTLWEICSGGDKPLSALDSQRKLQFYEDKHQLPAPKWTELANLINNCMDYEPDFRPAFRAVIRDLNSLFTPDYELLTENDMLPNMRIGALGFSGAFEDRDPTQFEERHLKFLQQLGKGNFGSVEMCRYDPLQDNTGEVVAVKKLQHSTEEHLRDFEREIEILKSLQHDNIVKYKGVCYSAGRRNLRLIMEYLPYGSLRDYLQKHKERIDHKKLLQYTSQICKGMEYLGTKRYIHRDLATRNILVENENRVKIGDFGLTKVLPQDKEYYKVKEPGESPIFWYAPESLTESKFSVASDVWSFGVVLYELFTYIEKSKSPPVEFMRMIGNDKQGQMIVFHLIELLKSNGRLPRPEGCPDEIYVIMTECWNNNVSQRPSFRDLSLRVDQIRDSIAA
partner: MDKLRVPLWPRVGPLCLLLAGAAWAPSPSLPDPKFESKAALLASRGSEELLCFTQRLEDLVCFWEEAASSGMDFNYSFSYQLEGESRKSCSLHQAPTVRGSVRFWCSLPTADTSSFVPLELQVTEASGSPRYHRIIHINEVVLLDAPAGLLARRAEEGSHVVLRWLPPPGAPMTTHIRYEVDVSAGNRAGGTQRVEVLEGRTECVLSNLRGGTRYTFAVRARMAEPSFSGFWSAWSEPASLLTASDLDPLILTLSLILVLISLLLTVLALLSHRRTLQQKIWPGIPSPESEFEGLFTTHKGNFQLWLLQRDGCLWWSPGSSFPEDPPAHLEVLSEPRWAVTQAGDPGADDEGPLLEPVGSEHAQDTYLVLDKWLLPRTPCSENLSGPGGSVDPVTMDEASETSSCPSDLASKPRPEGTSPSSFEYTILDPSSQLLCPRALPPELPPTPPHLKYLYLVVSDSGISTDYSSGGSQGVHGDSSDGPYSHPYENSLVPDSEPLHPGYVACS

Variants of: B1
Conditions: with epor_mouse Epor

| Variant | effect of a mutation on the interaction |
| --- | --- |
| T875N | increasing interaction |

Variants of: B1
Conditions: with epor_mouse Epor
Remark: another data set of the same source

| Variant | effect of a mutation on the interaction |
| --- | --- |
| K539L | increasing interaction |

Variants of: B1
Conditions: with epor_mouse Epor
Remark: another data set of the same source

| Variant | effect of a mutation on the interaction |
| --- | --- |
| V617F | increasing interaction |
